Experimental data taken from the supplement of paper PMC7877785.
± gives the uncertainty stated by the source.

Assay: self-splicing fitness, log relative to wild type (ln ratio); higher = more splicing; Tetrahymena group I intron in knt gene, E. coli kanamycin selection, DiMSum; sequences stand for … in CUCUCU…GGAGGGAAAAGUUAUCAGGCAUGCACCUGGUAGCUAGUCUUUAAACCAAUAGAUUGCAUCGGUUUAAAAGGCAAGACCGUCAAAUUGCGGGAAAGGGGUCAACAGCCGUUCAGUACCAAGUCUCAGGGGAAACUUUGAGAUGGCCUUGCAAAGGGUAUGGUAAUAAGCUGACGGACAUGGUCCUAACCACGCAGCCAAGUCCUAAGUCAACAGAUCUUCUGUUGAUAUGGAUGCAGUUCACAGACUAAAUGUCGGUCGGGGAAGAUGUAUUCUUCUCAUAAGAUAUAGUCGGACCUCUCCUUAAUGGGAGCUAGCGGAUGAAGUGAUGCAACACUGGAGCCGCUGGGAACUAAUUUGUAUGCGAAAGUAUAUUGAUUAGUUUUGGAGUACUCGUGGUCG
Procedure, shortened: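 Library with all eight P1ex-region intron nucleotides randomised, intron inside the knt kanamycin-resistance gene on pET-22b(+), in E. coli BL21(DE3). Cells grew overnight at 37°C or 30°C on LB agar with or without 25 μg/mL kanamycin (plus 100 μg/mL carbenicillin, 50 μM IPTG, 0.2% rhamnose), in six replicate transformations. Pooled colonies were amplicon-sequenced on Illumina HiSeq 2500. DiMSum fitness is the error-weighted combination of wild-type-normalised replicate fold changes, kanamycin versus none.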

Row | Sequence | self-splicing fitness (ln) (30 °C) | self-splicing fitness (ln) (37 °C)
1 | UCGCAGCAAUAUUACGGGAG | -3.59 ± 0.24 | -3.15 ± 0.23
2 | UCGCAGCAAUAUUACGGGGU | -3.73 ± 0.17 | -2.72 ± 0.18
3 | UCGCAGCAAUAUUACGGUAG | -2.49 ± 0.086 | -0.887 ± 0.086
4 | UCGCAGCAAUAUUACGGUAU | -3.36 ± 0.17 | -1.78 ± 0.21
5 | UCGCAGCAAUAUUACGUAGG | -0.74 ± 0.068 | -0.377 ± 0.086
6 | UCGCAGCAAUAUUACGUAGU | -2.58 ± 0.13 | -2.85 ± 0.26
7 | UCGCAGCAAUAUUACGUAUU | -3.64 ± 0.15 | -1.85 ± 0.12
8 | UCGCAGCAAUAUUACGUCAG | -1.59 ± 0.12 | 0.604 ± 0.15
9 | UCGCAGCAAUAUUACGUGCU | -3.64 ± 0.16 | -2.15 ± 0.17
10 | UCGCAGCAAUAUUACGUUAC | -3.36 ± 0.36 | -2.95 ± 0.25
11 | UCGCAGCAAUAUUACGUUCC | -2.7 ± 0.23 | –
12 | UCGCAGCAAUAUUACGUUUC | -3.87 ± 0.2 | -1.66 ± 0.12
13 | UCGGAGCAAUAUUACGAACG | – | -1.54 ± 0.35
14 | UCGGAGCAAUAUUACGAAUA | -2.32 ± 0.32 | -1.27 ± 0.32
15 | UCGGAGCAAUAUUACGACGC | -1.25 ± 0.25 | -0.73 ± 0.22
16 | UCGGAGCAAUAUUACGAUGU | -2.81 ± 0.17 | -1.2 ± 0.13
17 | UCGGAGCAAUAUUACGCAUU | – | -2.14 ± 0.27
18 | UCGGAGCAAUAUUACGCCUU | -2.96 ± 0.29 | -2.92 ± 0.43
19 | UCGGAGCAAUAUUACGGACG | -1.65 ± 0.21 | 0.113 ± 0.17
20 | UCGGAGCAAUAUUACGGAUU | -2.73 ± 0.27 | -2.85 ± 0.38
21 | UCGGAGCAAUAUUACGGCCG | -1.49 ± 0.31 | –
22 | UCGGAGCAAUAUUACGGCGG | -1.42 ± 0.11 | -0.955 ± 0.17
23 | UCGGAGCAAUAUUACGGGAU | -3.48 ± 0.25 | -2.81 ± 0.38
24 | UCGGAGCAAUAUUACGGUUC | – | -2.89 ± 0.43
25 | UCGGAGCAAUAUUACGUCGA | -0.356 ± 0.42 | -0.949 ± 0.3
26 | UCGGAGCAAUAUUACGUGUU | -3.26 ± 0.24 | -2.25 ± 0.26

Row | Sequence | self-splicing fitness (ln) (30 °C) | self-splicing fitness (ln) (37 °C)
27 | UCGGAGCAAUAUUACGUUCG | -1.19 ± 0.17 | -1.27 ± 0.27
28 | UCGUAGCAAUAUUACGAAGC | – | -1.29 ± 0.35
29 | UCGUAGCAAUAUUACGACGG | -2.04 ± 0.2 | -0.573 ± 0.19
30 | UCGUAGCAAUAUUACGAGGA | -3.72 ± 0.39 | -2.58 ± 0.29
31 | UCGUAGCAAUAUUACGAUAA | -3.65 ± 0.26 | -1.72 ± 0.2
32 | UCGUAGCAAUAUUACGAUAG | – | -3.12 ± 0.38
33 | UCGUAGCAAUAUUACGAUCG | -2.77 ± 0.23 | -0.597 ± 0.18
34 | UCGUAGCAAUAUUACGAUUA | -2 ± 0.3 | -0.78 ± 0.17
35 | UCGUAGCAAUAUUACGCCCA | -0.576 ± 0.14 | 0.129 ± 0.19
36 | UCGUAGCAAUAUUACGCGCG | -1.62 ± 0.12 | -1.34 ± 0.15
37 | UCGUAGCAAUAUUACGCGUU | -2.91 ± 0.26 | -2.18 ± 0.26
38 | UCGUAGCAAUAUUACGCUGC | – | -2.48 ± 0.36
39 | UCGUAGCAAUAUUACGGAUU | -2.08 ± 0.14 | -2.85 ± 0.23
40 | UCGUAGCAAUAUUACGGCAU | -3.93 ± 0.27 | -2.53 ± 0.28
41 | UCGUAGCAAUAUUACGGGUA | -1.57 ± 0.17 | -0.425 ± 0.16
42 | UCGUAGCAAUAUUACGGUCA | -0.782 ± 0.16 | -0.0592 ± 0.13
43 | UCGUAGCAAUAUUACGGUUG | -2.14 ± 0.12 | -1.05 ± 0.15
44 | UCGUAGCAAUAUUACGGUUU | -3.44 ± 0.14 | -1.37 ± 0.11
45 | UCGUAGCAAUAUUACGUAGG | -2.71 ± 0.17 | -0.631 ± 0.15
46 | UCGUAGCAAUAUUACGUGGC | -4.04 ± 0.16 | -2.22 ± 0.12
47 | UCGUAGCAAUAUUACGUGUC | -3.24 ± 0.25 | -2.38 ± 0.25
48 | UCUAAGCAAUAUUACGAAGC | -1.05 ± 0.39 | -1.8 ± 0.36
49 | UCUAAGCAAUAUUACGACUA | -3.07 ± 0.25 | -0.59 ± 0.15
50 | UCUAAGCAAUAUUACGCAUA | -1.86 ± 0.18 | -2.33 ± 0.25
51 | UCUAAGCAAUAUUACGCCCA | -1.48 ± 0.15 | -0.486 ± 0.17
52 | UCUAAGCAAUAUUACGCUCG | -1.43 ± 0.2 | -1.36 ± 0.18

Row | Sequence | self-splicing fitness (ln) (30 °C) | self-splicing fitness (ln) (37 °C)
53 | UCUAAGCAAUAUUACGGCCA | -1.21 ± 0.22 | -1.17 ± 0.21
54 | UCUAAGCAAUAUUACGGCGA | -0.734 ± 0.086 | -0.474 ± 0.092
55 | UCUAAGCAAUAUUACGGCGU | -2.01 ± 0.11 | -0.795 ± 0.11
56 | UCUAAGCAAUAUUACGGGGG | -3.17 ± 0.22 | -0.678 ± 0.17
57 | UCUAAGCAAUAUUACGUCAU | -3.45 ± 0.2 | -2.4 ± 0.16
58 | UCUAAGCAAUAUUACGUCCA | -2 ± 0.14 | -0.707 ± 0.13
59 | UCUAAGCAAUAUUACGUCCC | – | -0.386 ± 0.41
60 | UCUAAGCAAUAUUACGUCGA | -0.33 ± 0.088 | 0.0723 ± 0.11
61 | UCUAAGCAAUAUUACGUCUA | -2.51 ± 0.33 | -2.25 ± 0.4
62 | UCUAAGCAAUAUUACGUCUG | -1.72 ± 0.16 | -1.18 ± 0.19
63 | UCUCAGCAAUAUUACGAAUU | -3.12 ± 0.13 | -1.77 ± 0.15
64 | UCUCAGCAAUAUUACGAGGA | -3.23 ± 0.26 | -1.77 ± 0.14
65 | UCUCAGCAAUAUUACGAGGG | -2.87 ± 0.11 | -1.31 ± 0.12
66 | UCUCAGCAAUAUUACGAGUC | -3.98 ± 0.18 | -2.93 ± 0.18
67 | UCUCAGCAAUAUUACGAUCU | -1.68 ± 0.14 | -2 ± 0.2
68 | UCUCAGCAAUAUUACGCAUG | – | -1.04 ± 0.45
69 | UCUCAGCAAUAUUACGCCGC | -2.99 ± 0.34 | -1.52 ± 0.36
70 | UCUCAGCAAUAUUACGCGUC | -3.62 ± 0.27 | -2.81 ± 0.29
71 | UCUCAGCAAUAUUACGGAUU | -1.73 ± 0.097 | -1.15 ± 0.11
72 | UCUCAGCAAUAUUACGGUGA | -1.8 ± 0.13 | -1.14 ± 0.12
73 | UCUCAGCAAUAUUACGGUUC | -2.57 ± 0.21 | -1.73 ± 0.34
74 | UCUCAGCAAUAUUACGUAUC | -3.5 ± 0.24 | -1.9 ± 0.25
75 | UCUCAGCAAUAUUACGUCUC | -4.6 ± 0.31 | -3 ± 0.23
76 | UCUCAGCAAUAUUACGUGGU | -1.7 ± 0.1 | -2.48 ± 0.16
77 | UCUCAGCAAUAUUACGUGUG | -2.33 ± 0.098 | -2.27 ± 0.11
78 | UCUCAGCAAUAUUACGUUCC | -2.72 ± 0.36 | -0.417 ± 0.28
